± gives the uncertainty stated by the source.
B1: POU domain, class 3, transcription factor 4, residues 280 to 335; numbered along this chain, P49335 (parent)
chain: KKRTSIEVSVKGVLETHFLKCPKPAAQEISSLADSLQLEKEVVRVWFCNRRQKEKR
B2: Chromodomain-helicase-DNA-binding protein 3, residues 374 to 426; numbered along this chain, Q12873 (parent)
chain: YETDHQDYCEVCQQGGEIILCDTCPRAYHLVCLDPELDRAPEGKWSCPHCEKE

Variants of: B1
Assay: abundance fitness (aPCA) (normalised: wild type 0, dead -1); higher = more abundant; growth selection in yeast, the domain comes from the species named
Settings: Homo sapiens

Abundance fitness: each site, then its substitutions
C48: Q 0.154 ± 0.16 | P -0.762 ± 0.21 | A -0.051 ± 0.18 | W -0.073 ± 0.16 | E 0.549 ± 0.19 | T -0.187 ± 0.21 | I 0.155 ± 0.2 | R 0.056 ± 0.12 | K 0.282 ± 0.24 | S 0.078 ± 0.13 | V 0.058 ± 0.15 | N -0.113 ± 0.22 | H 0.068 ± 0.28 | G -0.526 ± 0.14 | M 0.022 ± 0.19 | D 0.023 ± 0.25
E54: W -0.902 ± 0.25 | F -0.836 ± 0.44 | T -1.06 ± 0.4 | Q -0.259 ± 0.24 | M -0.819 ± 0.3 | G -0.808 ± 0.16 | C -0.897 ± 0.3 | H -0.906 ± 0.33 | K -0.591 ± 0.46 | L -0.787 ± 0.16 | V -0.634 ± 0.17 | A -0.788 ± 0.2 | S -0.679 ± 0.18
R56: L -0.075 ± 0.19 | N 0.38 ± 0.48 | Y -0.144 ± 0.43 | M 0.123 ± 0.24 | E 0.387 ± 0.2 | A -0.085 ± 0.29 | G -0.325 ± 0.19 | W -0.393 ± 0.18 | T 0.002 ± 0.39 | S 0.015 ± 0.27
R51: K -1.04 ± 0.35 | V -0.424 ± 0.13 | G -0.804 ± 0.14 | N -0.628 ± 0.37 | A -0.309 ± 0.14 | L -0.305 ± 0.14 | C -0.506 ± 0.24 | Q -0.237 ± 0.18 | E -0.258 ± 0.16 | P -0.834 ± 0.25 | W -0.221 ± 0.17 | S -0.549 ± 0.18 | T -0.848 ± 0.33 | Y -0.193 ± 0.47 | D -0.839 ± 0.34 | M -0.243 ± 0.21
N49: K -0.119 ± 0.16 | I -0.613 ± 0.24 | M -0.304 ± 0.22 | S -0.308 ± 0.14 | L -0.479 ± 0.14 | G -0.711 ± 0.17 | H -0.46 ± 0.2 | W -0.885 ± 0.21 | Q 0 ± 0.16 | C -0.686 ± 0.28 | Y -0.752 ± 0.23 | E 0.117 ± 0.2 | D 0 ± 0.23 | P -0.724 ± 0.21 | F -0.574 ± 0.18 | A -0.373 ± 0.17 | T -0.363 ± 0.14
F47: G -0.745 ± 0.18 | D -0.565 ± 0.4 | P -0.996 ± 0.27 | C -0.792 ± 0.31 | E -0.872 ± 0.23 | S -0.426 ± 0.15 | Q -0.899 ± 0.31 | V -0.795 ± 0.19 | H -0.571 ± 0.38 | W -0.769 ± 0.21 | M -0.897 ± 0.3 | A -0.65 ± 0.17 | L -0.868 ± 0.17 | Y -0.534 ± 0.3 | K -1.16 ± 0.36 | R -0.677 ± 0.17
V45: T 0.307 ± 0.15 | Q 0.156 ± 0.14 | P -0.38 ± 0.2 | S 0.097 ± 0.15 | Y -0.372 ± 0.25 | R -0.062 ± 0.13 | W -0.337 ± 0.18 | N 0.373 ± 0.17
W46: I -0.688 ± 0.25 | H -0.647 ± 0.35 | Q -0.403 ± 0.27 | G -0.639 ± 0.15 | S -0.693 ± 0.21 | K -0.673 ± 0.25 | V -0.82 ± 0.17 | M -0.932 ± 0.26 | E -0.892 ± 0.25 | P -0.953 ± 0.29 | T -0.709 ± 0.19 | N -0.816 ± 0.29 | F -1.05 ± 0.34 | A -0.623 ± 0.15 | R -0.927 ± 0.16
R50: M -0.692 ± 0.34 | Q -0.88 ± 0.41 | G -0.778 ± 0.14 | W -0.999 ± 0.34 | P -0.87 ± 0.23 | Y -0.559 ± 0.34 | A -0.582 ± 0.14 | E -0.814 ± 0.21 | T -0.693 ± 0.25 | C -0.769 ± 0.36 | K -0.446 ± 0.2 | L -0.93 ± 0.2 | I -0.93 ± 0.28 | N -0.771 ± 0.41
K55: F -0.194 ± 0.32 | W -0.497 ± 0.24 | Y -0.259 ± 0.24 | A -0.1 ± 0.17 | E -0.259 ± 0.22 | V -0.069 ± 0.13 | S -0.368 ± 0.17 | P -0.764 ± 0.33 | G -0.392 ± 0.13 | T -0.417 ± 0.2 | N -0.147 ± 0.22 | M -0.264 ± 0.26 | C -0.017 ± 0.21 | Q -0.016 ± 0.48 | D -0.223 ± 0.28 | I -0.604 ± 0.27 | R -0.027 ± 0.14
Q52: M 0.071 ± 0.2 | V -0.378 ± 0.14 | G -0.34 ± 0.13 | E 0.084 ± 0.17 | I -0.126 ± 0.23 | H -0.069 ± 0.23 | T -0.351 ± 0.22 | Y -0.095 ± 0.34 | L -0.055 ± 0.13 | F -0.931 ± 0.38 | D 0.231 ± 0.2 | W -0.685 ± 0.23 | C -0.291 ± 0.21 | P -0.741 ± 0.22 | R -0.317 ± 0.13 | A 0.203 ± 0.13 | N 0.273 ± 0.27
K53: Q -0.258 ± 0.24 | T -0.428 ± 0.2 | R -0.171 ± 0.15 | N -0.544 ± 0.41 | Y -0.616 ± 0.31 | E 0.194 ± 0.18 | A -0.066 ± 0.13 | G -0.826 ± 0.2 | W -0.888 ± 0.33 | P -0.884 ± 0.25 | C -0.428 ± 0.35 | M -0.049 ± 0.29 | F -0.027 ± 0.29 | S -0.318 ± 0.15 | D -0.232 ± 0.2

Variants of: B2
Assay: as above
Settings: Homo sapiens

Abundance fitness: each site, then its substitutions
T3: V -0.055 ± 0.093 | M 0.377 ± 0.11 | K 0.363 ± 0.12 | F 0.236 ± 0.14 | C -0.048 ± 0.12 | W 0.13 ± 0.13 | P -0.09 ± 0.12 | H -0.481 ± 0.22 | D -0.163 ± 0.15 | E 0.314 ± 0.14 | R 0.206 ± 0.082 | I -0.035 ± 0.14 | A -0.179 ± 0.1 | Q -0.069 ± 0.15 | Y 0.113 ± 0.14 | G 0.136 ± 0.1
E2: I 0.419 ± 0.1 | G -0.011 ± 0.13 | A -0.263 ± 0.1 | R -0.086 ± 0.12 | K 0.294 ± 0.15 | P -0.095 ± 0.11 | M 0.549 ± 0.18 | S 0.125 ± 0.098 | C 0.138 ± 0.15 | Y 0.327 ± 0.12 | T 0.34 ± 0.097 | H 0.126 ± 0.099 | L 0.282 ± 0.09 | D 0.327 ± 0.12 | V -0.232 ± 0.089 | F 0.285 ± 0.13 | W -0.006 ± 0.27 | Q 0.231 ± 0.17 | N 0.526 ± 0.11
D4: T 0.079 ± 0.12 | M 0.438 ± 0.11 | I -0.156 ± 0.15 | Q 0.075 ± 0.13 | K -0.041 ± 0.15 | F -0.055 ± 0.12 | Y -0.126 ± 0.24 | A 0.133 ± 0.085 | H -0.136 ± 0.22 | C -0.066 ± 0.18 | R -0.203 ± 0.11 | W -0.088 ± 0.13 | G -0.001 ± 0.091 | L 0.077 ± 0.086 | N -0.406 ± 0.15 | V 0.166 ± 0.08
V11: A -0.143 ± 0.079 | D 0.178 ± 0.089 | C 0.184 ± 0.089 | F 0.138 ± 0.095 | E 0.277 ± 0.08
Y8: W -0.086 ± 0.12 | R 0.25 ± 0.079 | P 0.302 ± 0.11 | V 0.053 ± 0.1 | T -0.118 ± 0.1 | G 0.165 ± 0.094 | L 0.215 ± 0.095 | I 0.21 ± 0.21 | H 0.461 ± 0.13 | E 0.098 ± 0.12 | Q 0.499 ± 0.12 | A 0.207 ± 0.11 | K 0.141 ± 0.12 | F 0.083 ± 0.23 | N 0.061 ± 0.16 | C -0.211 ± 0.18 | S -0.026 ± 0.092
Q6: Y -0.267 ± 0.14 | W -0.378 ± 0.17 | C -0.499 ± 0.17 | S -0.439 ± 0.12 | A -0.209 ± 0.27 | E -0.227 ± 0.22 | G -0.299 ± 0.21 | H -0.014 ± 0.15 | F -0.579 ± 0.18 | P -0.353 ± 0.16 | D -0.294 ± 0.28 | R -0.139 ± 0.14
C9: D -0.743 ± 0.19 | F -0.975 ± 0.17 | W -0.716 ± 0.13 | A -0.96 ± 0.18 | P -0.756 ± 0.14 | K -0.425 ± 0.19 | R -0.62 ± 0.1 | V -0.633 ± 0.14 | G -0.669 ± 0.14 | N -0.353 ± 0.15 | E -0.548 ± 0.21 | H -0.786 ± 0.17 | Q -0.551 ± 0.15 | L -0.681 ± 0.1 | Y -0.74 ± 0.11
H5: W -0.197 ± 0.12 | D -1.03 ± 0.24 | A 0.329 ± 0.1 | F -0.171 ± 0.29 | L 0.161 ± 0.087 | G 0.366 ± 0.11 | C 0.222 ± 0.24 | P -0.071 ± 0.12 | T 0.186 ± 0.11 | N 0.229 ± 0.14 | Q 0.13 ± 0.11 | E -0.137 ± 0.14 | S 0.302 ± 0.1 | R 0.118 ± 0.093 | V 0.142 ± 0.092
E10: Q 0.116 ± 0.18 | H 0.114 ± 0.16 | T 0.132 ± 0.12 | P -0.006 ± 0.14 | A -0.083 ± 0.11 | R 0.027 ± 0.086 | Y 0.158 ± 0.12 | G -0.139 ± 0.089 | K 0.169 ± 0.13 | C 0.046 ± 0.12 | M -0.301 ± 0.13 | S 0.064 ± 0.097 | D 0.169 ± 0.13 | N 0.268 ± 0.14 | F -0.08 ± 0.14 | V 0.137 ± 0.1 | L 0.259 ± 0.097
Y1: V 0.156 ± 0.2 | G 0.416 ± 0.21 | S -0.264 ± 0.34 | I 0.557 ± 0.34 | E 0.154 ± 0.33 | W 0.259 ± 0.21 | C 0.258 ± 0.21 | L 0.172 ± 0.27 | D -0.2 ± 0.19 | K 0.352 ± 0.46 | N -0.287 ± 0.25
D7: Y -0.522 ± 0.23 | T -0.036 ± 0.19 | E -0.263 ± 0.25 | G -0.055 ± 0.14 | L -0.727 ± 0.22 | V -0.083 ± 0.15 | H -0.012 ± 0.24 | A 0.043 ± 0.17 | P 0.134 ± 0.26 | N 0.044 ± 0.1 | F -0.37 ± 0.22 | M -0.105 ± 0.29 | K -0.044 ± 0.15 | Q -0.146 ± 0.26 | W -0.767 ± 0.33 | S -0.154 ± 0.11 | R -0.289 ± 0.13

From the Human Domainome abundance scans (Beltran et al. 2025)
